Data set [1] deals with the molecule itself. The data set is described as follows: NanoBRET, Nluc and HaloTag fusions co-transfected in HEK293T cells. As to the method:
(§1) To investigate the interaction between AR FL protein and AR2 protein, NanoBRET assay was performed (Promega NanoBRET™ Protein: Protein Interaction System). Briefly, HEK293T cells were co-transfected with a Nanoluc luciferase (Nluc) fusion plasmid and a HaloTag fusion plasmid with Lipofectamine 2000 reagent. Nluc-MDM2 and p53-HaloTag pair was included as the positive control, and Nluc-MDM2 and HaloTag-SMAD4 pair as negative control. At 24 h after transfection, cells were treated with or without 10 nM DHT. HaloTag NanoBRET 618 ligand or DMSO (no-ligand control) was added. At 24 h, NanoBRET Nano-Glo substrate was added and NanoBRET readings at 460 nm and 618 nm were obtained. Mean corrected NanoBRET ratio in milliBRET unit was calculated using the formula: Mean corrected Nanobret ratio, […]

In data set [2] the target is T1, human androgen receptor (AR), full length (human, UniProt P10275 1-920).
T1 construct: Full-length AR expressed inside transfected HEK293T cells, not on the cell surface; In the NanoBRET assay it was an N- or C-terminal fusion with Nanoluc luciferase or HaloTag; For co-IP the constructs were with or without an N-terminal FLAG tag; Assays were run with or without 10 nM DHT; also called AR1; AR FL
T1 sequence: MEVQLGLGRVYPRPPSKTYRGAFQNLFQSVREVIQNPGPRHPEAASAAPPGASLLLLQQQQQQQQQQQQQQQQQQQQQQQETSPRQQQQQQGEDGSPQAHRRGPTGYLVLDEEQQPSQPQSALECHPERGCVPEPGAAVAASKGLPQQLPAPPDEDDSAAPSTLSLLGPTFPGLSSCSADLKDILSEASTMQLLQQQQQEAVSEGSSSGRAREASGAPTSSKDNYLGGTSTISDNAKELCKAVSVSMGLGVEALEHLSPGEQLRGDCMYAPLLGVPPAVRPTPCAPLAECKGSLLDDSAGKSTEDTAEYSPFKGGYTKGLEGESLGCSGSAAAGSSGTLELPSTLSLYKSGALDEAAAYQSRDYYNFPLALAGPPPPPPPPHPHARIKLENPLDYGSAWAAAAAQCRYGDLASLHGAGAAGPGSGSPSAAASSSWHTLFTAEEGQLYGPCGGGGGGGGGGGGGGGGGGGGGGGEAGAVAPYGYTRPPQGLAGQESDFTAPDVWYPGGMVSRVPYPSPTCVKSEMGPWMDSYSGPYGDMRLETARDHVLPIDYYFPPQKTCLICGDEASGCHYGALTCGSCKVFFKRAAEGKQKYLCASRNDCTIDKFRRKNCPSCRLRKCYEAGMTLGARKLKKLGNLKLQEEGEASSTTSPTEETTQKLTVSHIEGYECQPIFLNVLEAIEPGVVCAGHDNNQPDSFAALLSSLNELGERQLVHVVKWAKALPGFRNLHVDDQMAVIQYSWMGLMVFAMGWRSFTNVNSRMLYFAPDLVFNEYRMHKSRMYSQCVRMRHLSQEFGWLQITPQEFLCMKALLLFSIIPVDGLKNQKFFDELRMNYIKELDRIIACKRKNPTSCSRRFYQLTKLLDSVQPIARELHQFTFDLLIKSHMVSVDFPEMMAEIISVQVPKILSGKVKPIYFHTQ
The data set is described as above. As to the method:
as §1

The text below walks through data of US20220380438A1 (OXFORD UNIVERSITY INNOVATION, published 2022).

B1: human androgen receptor splice variant 2 (AR2) (receptor)
chain: MILWLHSLETARDHVLPIDYYFPPQKTCLICGDEASGCHYGALTCGSCKVFFKRAAEGKQKYLCASRNDCTIDKFRRKNCPSCRLRKCYEAGMTLGARKLKKLGNLKLQEEGEASSTTSPTEETTQKLTVSHIEGYECQPIFLNVLEAIEPGVVCAGHDNNQPDSFAALLSSLNELGERQLVHVVKWAKALPGFRNLHVDDQMAVIQYSWMGLMVFAMGWRSFTNVNSRMLYFAPDLVFNEYRMHKSRMYSQCVRMRHLSQEFGWLQITPQEFLCMKALLLFSIIPVDGLKNQKFFDELRMNYIKELDRIIACKRKNPTSCSRRFYQLTKLLDSVQPIARELHQFTFDLLIKSHMVSVDFPEMMAEIISVQVPKILSGKVKPIYFHTQ
notes: Whole AR2 expressed inside transfected HEK293T cells; In the NanoBRET assay it was a fusion with Nanoluc luciferase or HaloTag; For co-IP it was with or without an N-terminal FLAG tag (anti-FLAG M2 beads); also called AR45; AR splice variant 2
On to B1, for which the binding result in data set [1] and in data set [2] was “binds” throughout.
